From article PMC12176259, “Bacterial transcriptional repressor NrdR – a flexible multifactorial nucleotide sensor”

Columns and labels:
[1] = target: T1, NrdR (EcoNrdR) (Escherichia coli K-12 MG1655, UniProt P0A8D0 1-149); experiment: MST; ATP + dATP; MST: 17 mM Tris-HCl pH 8.6, 100 mM NaCl, 7 mM MgCl2, 0.33 mM TCEP, 0.025% Tween-20, nucleotides 1 mM each, 5 nM Cy5-DNA, room temperature; settings: protein: recombinant; tags: C-terminal His6; chain copies: 4; label: 5'-Cy5 sense strand; blunt
T1 sequence: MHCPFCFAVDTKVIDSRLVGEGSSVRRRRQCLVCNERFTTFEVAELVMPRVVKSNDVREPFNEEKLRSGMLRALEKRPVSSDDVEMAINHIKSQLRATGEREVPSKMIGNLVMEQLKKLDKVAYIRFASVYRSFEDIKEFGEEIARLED

[2] = target: T1, NrdR (EcoNrdR); experiment: cryo-EM structure (4 A); ATP + dATP 0.5 mM each, 5 mM Mg2+, Zn2+; NrdR tetramer; MST: 17 mM Tris-HCl pH 8.6, 100 mM NaCl, 7 mM MgCl2, 0.33 mM TCEP, 0.025% Tween-20, nucleotides 1 mM each, 5 nM Cy5-DNA, room temperature; settings: protein: recombinant; tags: C-terminal His6; chain copies: 4; blunt

Binder	binding result [1]	binding result [2]
ribX promoter (dsDNA) DNA 1: AGCATCGATCCTTTATCTCAAAAGCGTTGCGCCTTTGTTGTATCGTCAGTTCAGGGT DNA 2: ACCCTGAACTGACGATACAACAAAGGCGCAACGCTTTTGAGATAAAGGATCGATGCT	no binding	
EcoEF7,3 (dsDNA) DNA 1: GCACTATTTGCTATATATTGTGTGGTTGAATCTTTTTTCAACTACATCTAGTATCTC DNA 2: GAGATACTAGATGTAGTTGAAAAAAGATTCAACCACACAATATATAGCAAATAGTGC		binds
